The text below walks through data of patent publication US20240301031A1 (JIANGSU HENGRUI PHARMACEUTICALS, published 2024).

Where a chain is given by its changes, count along the chain named. Numbers in names are those of the source.

T1: human APRIL (5860-AP-010/CF, R&D Systems) (human, UniProt O75888 115-250, limits assumed)
T1 construct: Bought protein
T1 sequence (looked up): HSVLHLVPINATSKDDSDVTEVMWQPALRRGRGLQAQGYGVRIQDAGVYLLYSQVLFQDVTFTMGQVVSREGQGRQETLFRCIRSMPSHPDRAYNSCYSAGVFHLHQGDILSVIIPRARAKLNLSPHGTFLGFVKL

B1: TACI-9 Fc (Fc fusion)
chain: SLSCRKEQGKFYDHLLRDCISCASICGQHPKQCAYFCENKLDKTHTCPPCPAPEAEGAPSVFLFPPKPKDTLMISRTPEVTCVVVDVSHEDPEVKFNWYVDGVEVHNAKTKPREEQYNSTYRVVSVLTVLHQDWLNGKEYKCKVSNKALPSSIEKTISKAKGQPREPQVYTLPPSRDELTKNQVSLTCLVKGFYPSDIAVEWESNGQPENNYKTTPPVLDSDGSFFLYSKLTVDKSRWQQGNVFSCSVMHEALHNHYTQKSLSLSPGK
notes: TACI positions 68-108, no mutation, fused directly to Fc; two identical polypeptides
B2: TACI-9-15Fc (Fc fusion)
chain: B1 chain with L2T, K6E, K10E, Y35A
notes: two identical polypeptides
B3: TACI-9-10Fc (Fc fusion)
chain: B1 chain with K6E, K10E
notes: TACI-9 with K6E and K10E, fused to Fc; two identical polypeptides
B4: TACI-13 Fc (Fc fusion)
chain: SLSCRKEQGKFYDHLLRDCISCASICGQHPKQCAYFCDKTHTCPPCPAPEAEGAPSVFLFPPKPKDTLMISRTPEVTCVVVDVSHEDPEVKFNWYVDGVEVHNAKTKPREEQYNSTYRVVSVLTVLHQDWLNGKEYKCKVSNKALPSSIEKTISKAKGQPREPQVYTLPPSRDELTKNQVSLTCLVKGFYPSDIAVEWESNGQPENNYKTTPPVLDSDGSFFLYSKLTVDKSRWQQGNVFSCSVMHEALHNHYTQKSLSLSPGK
notes: Fused directly to Fc; two identical polypeptides
B5: TACI-11 Fc (Fc fusion)
chain: SLSCRKEQGKFYDHLLRDCISCASICGQHPKQCAYFCENDKTHTCPPCPAPEAEGAPSVFLFPPKPKDTLMISRTPEVTCVVVDVSHEDPEVKFNWYVDGVEVHNAKTKPREEQYNSTYRVVSVLTVLHQDWLNGKEYKCKVSNKALPSSIEKTISKAKGQPREPQVYTLPPSRDELTKNQVSLTCLVKGFYPSDIAVEWESNGQPENNYKTTPPVLDSDGSFFLYSKLTVDKSRWQQGNVFSCSVMHEALHNHYTQKSLSLSPGK
notes: TACI-9 truncated at the C-terminus by 2 amino acids KL, fused directly to Fc; two identical polypeptides
B6: TACI-12 Fc (Fc fusion)
chain: SLSCRKEQGKFYDHLLRDCISCASICGQHPKQCAYFCEDKTHTCPPCPAPEAEGAPSVFLFPPKPKDTLMISRTPEVTCVVVDVSHEDPEVKFNWYVDGVEVHNAKTKPREEQYNSTYRVVSVLTVLHQDWLNGKEYKCKVSNKALPSSIEKTISKAKGQPREPQVYTLPPSRDELTKNQVSLTCLVKGFYPSDIAVEWESNGQPENNYKTTPPVLDSDGSFFLYSKLTVDKSRWQQGNVFSCSVMHEALHNHYTQKSLSLSPGK
notes: TACI-9 truncated at the C-terminus by 3 amino acids NKL, fused directly to Fc; two identical polypeptides
B7: TACI-10 Fc (Fc fusion)
chain: SLSCRKEQGKFYDHLLRDCISCASICGQHPKQCAYFCENKDKTHTCPPCPAPEAEGAPSVFLFPPKPKDTLMISRTPEVTCVVVDVSHEDPEVKFNWYVDGVEVHNAKTKPREEQYNSTYRVVSVLTVLHQDWLNGKEYKCKVSNKALPSSIEKTISKAKGQPREPQVYTLPPSRDELTKNQVSLTCLVKGFYPSDIAVEWESNGQPENNYKTTPPVLDSDGSFFLYSKLTVDKSRWQQGNVFSCSVMHEALHNHYTQKSLSLSPGK
notes: TACI-9 truncated at the C-terminus by 1 amino acid L, fused directly to Fc; two identical polypeptides
B8: TACI-14 Fc (Fc fusion)
chain: SLSCRKEQGKFYDHLLRDCISCASICGQHPKQCAYFDKTHTCPPCPAPEAEGAPSVFLFPPKPKDTLMISRTPEVTCVVVDVSHEDPEVKFNWYVDGVEVHNAKTKPREEQYNSTYRVVSVLTVLHQDWLNGKEYKCKVSNKALPSSIEKTISKAKGQPREPQVYTLPPSRDELTKNQVSLTCLVKGFYPSDIAVEWESNGQPENNYKTTPPVLDSDGSFFLYSKLTVDKSRWQQGNVFSCSVMHEALHNHYTQKSLSLSPGK
notes: as for B4
B9: TACI-21Fc (Fc fusion)
chain: EQGKFYDHLLRDCISCASICGQHPKQCAYFCEDKTHTCPPCPAPEAEGAPSVFLFPPKPKDTLMISRTPEVTCVVVDVSHEDPEVKFNWYVDGVEVHNAKTKPREEQYNSTYRVVSVLTVLHQDWLNGKEYKCKVSNKALPSSIEKTISKAKGQPREPQVYTLPPSRDELTKNQVSLTCLVKGFYPSDIAVEWESNGQPENNYKTTPPVLDSDGSFFLYSKLTVDKSRWQQGNVFSCSVMHEALHNHYTQKSLSLSPGK
notes: as for B4

The first experiment concerns the target T2, human BAFF (10056-HNCH, Sino biological) (human, UniProt Q9Y275 134-285).
T2 construct: Bought protein
The experiment in a line: ELISA, BAFF coated, fusion protein titrated. The procedure: (§1) The binding activity of the antibodies or fusion proteins for BAFF, APRIL, and IL-12/23 p40 was assayed by the ELISA method (coating an antigen protein). The specific procedures were as follows:
(§2) A BAFF (Sino biological, 10056-HNCH), APRIL (R&D Systems, 5860-AP-010/CF), or IL-12/23 p40 (Sino biological, 10052-H08H) protein was diluted to 1 μg/mL with a PBS (BasalMedia, B320) buffer at pH 7.4, and added to a 96-well microplate (Corning, 3590) at 100 μL/well. The plate was incubated at 4° C. overnight. After the liquid was discarded, 300 μL of 5% skim milk (BD, 232100) diluted with PBS was added to each well for blocking, and the plate was incubated at 37° C. for 2 h. After the blocking was completed, the blocking solution was discarded, and the plate was washed 3 times with a PBST buffer (PBS at pH 7.4 containing 0.1% tween-20). 100 μL of test antibody or fusion protein solution diluted in a gradient was added to each well, and the plate was incubated at 37° C. for 1 h. After the incubation was completed, the plate was washed 3 times with PBST. […] The plate was washed 3 times with PBST. 100 μL of TMB chromogenic substrate (KPL, 5120-0077) was added to each well, and the plate was incubated at room temperature for 10-15 min. The reaction was stopped by adding 50 μL of 1 M H₂SO₄ to each well. The plate was read for absorbance values at 450 nm on a microplate reader, the binding curves of the antibodies to an antigen were fitted with software, and the EC₅₀ values were calculated.
In general terms: ELISA stands for enzyme-linked immunosorbent assay.
B1: the EC50 was determined as 0.418 nM.

As for B2, a half-maximal effect (EC50) was put at 0.0869 nM.

Molecule B3 had an EC50 of 0.12 nM.

The next experiment addresses T1, human APRIL (5860-AP-010/CF, R&D …). The experiment in a line: SPR (Biacore), sample captured on Protein A, antigen flowed, 1:1 fit. The procedure: A certain amount of test sample was subjected to affinity capture by a biosensor chip Protein A (GE, 29127556), then antigens at a series of concentration gradients were allowed to flow on the surface of the chip. The reaction signals were detected in real time by using Biacore (GE, 8K) to obtain association and dissociation curves. After the dissociation was completed for each cycle, the biochip was washed and regenerated with a 10 mM glycine-hydrochloric acid solution at pH 1.5 (GE, BR-1003-54). The experimental data were fitted using BIAevaluation version 4.1, GE software with a 1:1 model to obtain affinity values. The related antigen proteins used in this assay are as follows: human IL-23 (CT048-H08H, Sino biological), human IL-12 (CT050-H08H, Sino biological), human BAFF (10056-HNCH, Sino biological), human APRIL (5860-AP-010/CF, R&D Systems), cynomolgus monkey p40 (10215-CL, R&D Systems), cynomolgus monkey BAFF (BAF-CM412B, Kactus), cynomolgus monkey APRIL (APR-CM410B, Kactus), mouse BAFF (BAF-M521y, Acro Biosystems), and mouse APRIL (7907-AP/CF, R&D Systems).
On the technique in general: SPR reads the build-up and loss of mass on a sensor chip optically.
For the molecule B1, the equilibrium dissociation constant (Kd) was 0.018 nM, the koff amounted to 0.000207 s⁻¹ and the kon was determined as 1.15e+07 M⁻¹ s⁻¹.

Consider B2, for which binding was characterised by a dissociation constant (Kd) of 0.0125 nM, the off-rate (koff) amounted to 9.6e-05 s⁻¹ and the kon is 7.67e+06 M⁻¹ s⁻¹.

In the case of B3, the affinity, expressed as Kd, was 0.0128 nM; the koff was 0.000112 s⁻¹; the kon was 8.75e+06 M⁻¹ s⁻¹.

A further experiment has as its target T2, human BAFF (10056-HNCH, Sino biological). The experiment in a line: competition ELISA: biotin-labeled BAFF to coated BAFF-R. Here is the method:
(§3) The blocking activity of the antibodies and the fusion proteins for receptors and ligands such as BAFF/BAFF-R, BAFF/BCMA, BAFF/TACI, APRIL/BCMA, APRIL/TACI, and p40/IL-12R1 was assayed by the ELISA method. The specific procedures were as follows:
(§4) A receptor protein was diluted to 2 μg/mL with PBS at pH 7.4 (BasalMedia, B320) and added to a 96-well microplate (Corning, 3590) at 100 μL/well. The plate was incubated at 4° C. overnight. After the liquid was discarded, 200 μL of 1% Casein blocking solution (Thermo, 37528) was added to each well for blocking, and the plate was incubated at 37° C. for 2 h. After the blocking was completed, the blocking solution was discarded, and the plate was washed 3 times with a PBST buffer (PBS at pH 7.4 containing 0.1% tween-20) for later use. A biotin-labeled ligand protein at a fixed concentration was mixed with the antibody or fusion protein diluted in gradient, pre-incubated at 37° C. for 30 min, and added to a blocked microplate. The plate was incubated at 37° C. for 1.5 h. After the incubation was completed, the plate was washed 3 times with PBST. 100 μL of streptavidin-HRP (Invitrogen, 434323, diluted at a ratio of 1:4000) was added to each well, and the plate was incubated at 37° C. for 1 h. The supernatant was removed, and the plate was washed 3 times with PBST. 100 μL of TMB chromogenic substrate (KPL, 5120-0077) was added to each well, and the plate was incubated at room temperature for 10-15 min. The reaction was stopped by adding 50 μL of 1 M H₂SO₄ to each well. The plate was read for absorbance values at 450 nm on a microplate reader, the curves for the inhibition of the binding of the ligands to the receptors were fitted with software, and the IC₅₀ values were calculated.
Turning to B4, the IC50 was found to be 30.1 nM.

As to B1, the 50% inhibitory concentration (IC50) is 2.09 nM.

As for B5, the IC50 stood at 2.62 nM.

Regarding B6, the IC50 was 3.86 nM.

For the molecule B7, the IC50 is 2.7 nM.

For the molecule B8, the 50% inhibitory concentration (IC50) amounted to 780 nM.

For another experiment the target is unchanged. The experiment in a line: ELISA, BAFF coated, fusion protein titrated. The source holds these as a separate data set. Here is the method: as §1, §2
In the case of B4, the EC50 amounted to 3.66 nM.

Molecule B1 yielded a concentration for a half-maximal effect (EC50) of 0.49 nM.

B9 came in with an EC50 of 9.8 nM.

In turn, B5 had a half-maximal effective concentration (EC50) of 0.584 nM.

For B6, the concentration for a half-maximal effect (EC50) was found to be 0.894 nM.

As for B7, the EC50 was found to be 0.561 nM.

Take B8: the EC50 was 64.2 nM.

The next experiment shares this target. Kind of experiment: SPR (Biacore), sample captured on Protein A, antigen flowed, 1:1 fit.
B1 came in with a Kd of 0.0748 nM, an off-rate constant (koff) of 1.62e-05 s⁻¹ and a kon of 217000 M⁻¹ s⁻¹.

On to B2, for which binding was put at a Kd of 0.0773 nM, the off-rate constant (koff) was 2.12e-05 s⁻¹ and the kon is 274000 M⁻¹ s⁻¹.

B3: binding was put at a Kd of 0.081 nM, the dissociation rate constant (koff) was determined as 1.89e-05 s⁻¹ and the kon came to 234000 M⁻¹ s⁻¹.

For another experiment the target is unchanged. The experiment in a line: competition ELISA: biotin-labeled BAFF to coated BAFF-R. This is another data set of the same source. Here is the method:
as §3, §4
With B1, the IC50 came out at 5.02 nM.

On to B9, for which the IC50 was 2520 nM.

One may read the EC50 as the concentration at which the effect is half-maximal. Read a low EC50 as higher potency in that assay. A word on the Kd: it is a measure of binding affinity in units of concentration. Lower therefore signals tighter binding. In general, koff refers to the rate constant with which the complex falls apart. As a reminder, the kon is a measure of how fast the partners come together. High values mean fast association, low ones slow association. What is called IC50 is the point on the concentration scale where inhibition reaches its midpoint.
